Data on 31 variants can be found in the supplement of paper PMC7125110.

± gives the standard error. Variants at the floor of the assay were thinned out. Where only a bound is given, the exact number is not on record here.

B1: glmS ribozyme (parent)
chain: AUAAAAGCGCCAGAACUACAGAAAUGUAGUUGACGAGGAGGAGGUUUAUCGAAUUUUCGGCGGAUGCCUCCAAA

What all share (conditions): with glucosamine-6-phosphate
The variants in data set [1] derive from B1. As to the kind of experiment: self-cleavage kobs at 640 uM GlcN6P; higher = faster cleavage; RNA array. The method in brief:
(§1)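 Ribozyme variants carrying barcodes were transcribed in situ on sequenced MiSeq chips by E. coli RNA polymerase and tracked at 37 °C with a hybridised Cy3 probe. They were exposed to 40 μM to 10 mM glucosamine-6-phosphate in HEPES/KCl/Mg(OAc)2 buffer. kobs came from exponential decay fits of normalised per-tile medians, and kcat and KM from weighted Michaelis–Menten fits.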

Variants of B1 are the subject of data set [2]. As to the kind of experiment: self-cleavage kobs at 2500 uM GlcN6P; higher = faster cleavage; RNA array. The method in brief:
as §1

Data set [3] covers variants of B1. As to the kind of experiment: self-cleavage kobs at 10000 uM GlcN6P; higher = faster cleavage; RNA array. An outline of the steps:
as §1

On to C8A G32C, for which the “self-cleavage kobs at 640 uM GlcN6P” value in data set [1] is below 1e-05 s⁻¹. Moreover, in data set [2], the “self-cleavage kobs at 2500 uM GlcN6P” value was below 1e-05 s⁻¹. Also, in data set [3], the “self-cleavage kobs at 10000 uM GlcN6P” value was below 1e-05 s⁻¹. For the variant G7U C8U G40U G62C, in data set [1], the “self-cleavage kobs at 640 uM GlcN6P” value was below 1e-05 s⁻¹.

On to G9C A48G C67G C68A, for which the “self-cleavage kobs at 640 uM GlcN6P” value in data set [1] was 9.72e-05 ± 4.1e-05 s⁻¹. In addition, the “self-cleavage kobs at 10000 uM GlcN6P” value in data set [3] is 0.000631 ± 0.00016 s⁻¹.

As to A33U G41A C58A U65G, the “self-cleavage kobs at 640 uM GlcN6P” value in data set [1] is below 1e-05 s⁻¹. Further, the “self-cleavage kobs at 2500 uM GlcN6P” value in data set [2] is below 1e-05 s⁻¹. As for G43C G44U G60U, the “self-cleavage kobs at 640 uM GlcN6P” value in data set [1] is below 1e-05 s⁻¹. Take C34A C61U U65C U69G: the “self-cleavage kobs at 640 uM GlcN6P” value in data set [1] is below 1e-05 s⁻¹. For the variant G13U A39G U55G, the “self-cleavage kobs at 640 uM GlcN6P” value in data set [1] was 0.000281 ± 8e-05 s⁻¹. Further, the “self-cleavage kobs at 2500 uM GlcN6P” value in data set [2] is 0.000683 ± 0.00022 s⁻¹. Further, in data set [3], the “self-cleavage kobs at 10000 uM GlcN6P” value was found to be 0.0028 ± 0.00059 s⁻¹.

On to G29A G37A, for which the “self-cleavage kobs at 640 uM GlcN6P” value in data set [1] stood at 0.000124 ± 3.6e-05 s⁻¹. In data set [2], the “self-cleavage kobs at 2500 uM GlcN6P” value was 0.000156 ± 5.7e-05 s⁻¹. For the variant C8A U31A C34U G60C, the “self-cleavage kobs at 640 uM GlcN6P” value in data set [1] was below 1e-05 s⁻¹. As to C34U C70A, the “self-cleavage kobs at 640 uM GlcN6P” value in data set [1] worked out at 0.00139 ± 0.00062 s⁻¹. G29C G37A G38U A52G: the “self-cleavage kobs at 640 uM GlcN6P” value in data set [1] was below 1e-05 s⁻¹. A33C G44U C71A: the “self-cleavage kobs at 640 uM GlcN6P” value in data set [1] was below 1e-05 s⁻¹. The “self-cleavage kobs at 2500 uM GlcN6P” value in data set [2] was below 1e-05 s⁻¹. On to A6C G38A C50G C67U, for which the “self-cleavage kobs at 640 uM GlcN6P” value in data set [1] turned out to be 0.000113 ± 4.8e-05 s⁻¹. Also, the “self-cleavage kobs at 2500 uM GlcN6P” value in data set [2] was found to be 7.23e-05 ± 1.8e-05 s⁻¹. Further, in data set [3], the “self-cleavage kobs at 10000 uM GlcN6P” value amounted to 4.13e-05 ± 1.3e-05 s⁻¹.

As to C11A C50G C61A, the “self-cleavage kobs at 640 uM GlcN6P” value in data set [1] was determined as 0.000272 ± 7.9e-05 s⁻¹. Further, in data set [2], the “self-cleavage kobs at 2500 uM GlcN6P” value amounted to 0.000188 ± 3.7e-05 s⁻¹. For the variant A33C G35C A42G G51U C70G, the “self-cleavage kobs at 640 uM GlcN6P” value in data set [1] was below 1e-05 s⁻¹. In addition, the “self-cleavage kobs at 2500 uM GlcN6P” value in data set [2] is below 1e-05 s⁻¹. On to U47C U55C, for which the “self-cleavage kobs at 640 uM GlcN6P” value in data set [1] was 0.00134 ± 0.00031 s⁻¹. Further, the “self-cleavage kobs at 2500 uM GlcN6P” value in data set [2] came to 0.0023 ± 0.00064 s⁻¹. Consider C8A U69A, for which, in data set [1], the “self-cleavage kobs at 640 uM GlcN6P” value stood at 0.00169 ± 0.00074 s⁻¹. With U46A A48G C50U, the “self-cleavage kobs at 640 uM GlcN6P” value in data set [1] was below 1e-05 s⁻¹. In addition, the “self-cleavage kobs at 2500 uM GlcN6P” value in data set [2] was below 1e-05 s⁻¹.

In the case of C11G C34U U69G, in data set [1], the “self-cleavage kobs at 640 uM GlcN6P” value was found to be 0.000508 ± 0.00017 s⁻¹. C11A C67U C71G: the “self-cleavage kobs at 640 uM GlcN6P” value in data set [1] was found to be 0.000295 ± 9e-05 s⁻¹. Moreover, the “self-cleavage kobs at 2500 uM GlcN6P” value in data set [2] was determined as 0.00108 ± 0.00018 s⁻¹. Besides, the “self-cleavage kobs at 10000 uM GlcN6P” value in data set [3] is 4.96e-05 ± 1.3e-05 s⁻¹. U55C C58A C70U: in data set [1], the “self-cleavage kobs at 640 uM GlcN6P” value came to 4.34e-05 ± 1.9e-05 s⁻¹. Besides, in data set [2], the “self-cleavage kobs at 2500 uM GlcN6P” value worked out at 5.54e-05 ± 1.5e-05 s⁻¹. Take C58U G62A C68G: the “self-cleavage kobs at 640 uM GlcN6P” value in data set [1] was 6.69e-05 ± 2.4e-05 s⁻¹. On to G32C G35U A36C C68A, for which, in data set [1], the “self-cleavage kobs at 640 uM GlcN6P” value is below 1e-05 s⁻¹. In addition, in data set [2], the “self-cleavage kobs at 2500 uM GlcN6P” value was below 1e-05 s⁻¹. For C11G C50U U57A G60A C67U, the “self-cleavage kobs at 640 uM GlcN6P” value in data set [1] amounted to 0.000609 ± 0.00017 s⁻¹. On to G13C C50A, for which the “self-cleavage kobs at 640 uM GlcN6P” value in data set [1] is below 1e-05 s⁻¹. In addition, the “self-cleavage kobs at 10000 uM GlcN6P” value in data set [3] was below 1e-05 s⁻¹. For U45C U65C G66U C68G, the “self-cleavage kobs at 640 uM GlcN6P” value in data set [1] was below 1e-05 s⁻¹. Also, the “self-cleavage kobs at 2500 uM GlcN6P” value in data set [2] was below 1e-05 s⁻¹. For the variant G13C A36U G59A, the “self-cleavage kobs at 640 uM GlcN6P” value in data set [1] was below 1e-05 s⁻¹. Regarding U30C G51A U65G, the “self-cleavage kobs at 640 uM GlcN6P” value in data set [1] was below 1e-05 s⁻¹. The “self-cleavage kobs at 2500 uM GlcN6P” value in data set [2] was below 1e-05 s⁻¹. As to U30C G44U, the “self-cleavage kobs at 640 uM GlcN6P” value in data set [1] is below 1e-05 s⁻¹. For the same variant, the “self-cleavage kobs at 2500 uM GlcN6P” value in data set [2] is below 1e-05 s⁻¹. Besides, in data set [3], the “self-cleavage kobs at 10000 uM GlcN6P” value is below 1e-05 s⁻¹. Turning to U57A G63U, the “self-cleavage kobs at 640 uM GlcN6P” value in data set [1] was below 1e-05 s⁻¹. For G13U C61U C70G, the “self-cleavage kobs at 640 uM GlcN6P” value in data set [1] was below 1e-05 s⁻¹.
